± gives the uncertainty stated by the source.
assay: amyloid nucleation score (Sup35N fusion, yeast selection) (log enrichment); library NNK1; higher = more nucleation; inactive = no reads after selection
In short: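 The nucleation score equals the log enrichment of output over input reads from DiMSum, centred on the mode score of non-aggregating sequences. It was computed only for sequences with 100 or more input reads. The reads came from Illumina sequencing of plasmid inserts from psi-negative yeast expressing Sup35N fused to peptides of 20 random codons, induced with 100 μM copper sulfate for 24 hours and grown 7 days at 30°C without adenine and uracil.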

Row | Substance | amyloid nucleation score
1 | SAFFYDSFYRMRLSLFIGYG | 0.63 ± 0.55
2 | SAIYRRWAHRAQSAWQVESR | 1.94 ± 0.7
3 | SALLVMPRVAVSSTMVGKAT | 0.938 ± 0.45
4 | SANRA | 0.62 ± 0.41
5 | SASDVWCLQMLRSVYFPPQG | inactive
6 | SASLS | 0.396 ± 0.71
7 | SASYNFTSCFKFLRRKIVIK | 0.196 ± 0.24
8 | SATPGRGY | 0.851 ± 0.24
9 | SAWCRSIM | 0.952 ± 0.27
10 | SCEGGCAGSCGVP | -0.641 ± 1.5
11 | SCFFKKMDMDT | 0.436 ± 0.69
12 | SCFLC | 1.4 ± 0.18
13 | SCLNVNVMLYSWESVGPKSG | inactive
14 | SCMESSVTL | 0.656 ± 0.35
15 | SCMTPMYRCSILLLA | -0.306 ± 0.42
16 | SCRSRTYERCLSLVNMEREG | 3.27 ± 0.13
17 | SCSPPIA | 0.223 ± 0.46
18 | SCTWYKFWRKSIAMILAILS | 0.169 ± 0.9
19 | SCVAVRLLWQDMHPRANEPR | 3.34 ± 0.13
20 | SCVYCMSRSNWILVWMALLQ | 0.614 ± 0.45
21 | SDFVWRCFAMSIRLKRLYRS | -0.68 ± 1.7
22 | SDFYLGSRVTCGLNLSMAMG | 0.686 ± 0.62
23 | SDGCYALIWFGREQ | -1.24 ± 1.1
24 | SDIMDFEY | inactive
25 | SDMSPNTGFG | 0.073 ± 0.8

Row | Substance | amyloid nucleation score
26 | SDNIYVMAWCSCNAARSIVF | 0.616 ± 0.18
27 | SDSEGYLVEGWY | 0.882 ± 0.87
28 | SDSIVNKKIVRWYRVFRIGC | 1.19 ± 0.51
29 | SDVVFYFGDAGFRMLSEDSR | -0.326 ± 0.55
30 | SDYGLGMSDWGDFMDRVGLR | 0.527 ± 1.2
31 | SDYMLNFCYSGLIVRMVFAA | -0.508 ± 0.98
32 | SEGCMSGRLCDRGVASFVWL | 0.7 ± 0.97
33 | SEGSLLYTMWGTLVDWSSCV | -1.08 ± 1.4
34 | SEIYSTWNKV | 0.002 ± 0.48
35 | SELWPRVDYCLATYSINSYA | -0.234 ± 0.3
36 | SEMHHCTRGG | -0.167 ± 0.9
37 | SESTYYDIQLPVHMLVDMSE | 0.257 ± 0.24
38 | SETYTPDRYNVRT | 0.536 ± 1.4
39 | SEWAMRITLATASSQTGGSE | 0.235 ± 0.32
40 | SEWIKLRVRLDLSLVAFKII | 0.686 ± 0.39
41 | SFAFAAAYAGEEENRLLMRL | -0.478 ± 0.34
42 | SFDGDRLNVVMAQWL | -0.357 ± 0.58
43 | SFDLGYPIFCKYTRT | 0.576 ± 0.52
44 | SFEDLEM | 0.457 ± 0.85
45 | SFFRNLLYFMIRCGNGYRET | -0.109 ± 0.93
46 | SFGVTFHWN | 2.36 ± 0.28
47 | SFLLNPTADMNHCFGDVFGG | -1.44 ± 1.4
48 | SFLNMGCRTVYRC | 0.331 ± 0.61
49 | SFLSCRWLVFRLMKLRYICA | 0.444 ± 1.4
50 | SFMAVSKGFMTIISSYYLC | -0.662 ± 0.32

Row | Substance | amyloid nucleation score
51 | SFNHYMFLYFVISGWSSPQA | 1.1 ± 0.55
52 | SFQFVSSCDIRRFAISRATG | -0.152 ± 0.47
53 | SFRKRQVVLVSANNDSVWKC | -0.097 ± 0.57
54 | SFSIGSFSAPLVAERFCCYT | 0.163 ± 0.48
55 | SFSWLSRMTR | 2 ± 0.1
56 | SFTYLCFKQILKPKCTLLAP | inactive
57 | SFVHYFKESLAVSSLIRLSN | -0.333 ± 1.1
58 | SFVSYYLLS | -1.09 ± 1.9
59 | SFVYS | -0.157 ± 0.4
60 | SGAYLNKGFSVLAFYIIIVK | 1.81 ± 0.26
61 | SGCSRRCWLGSRPGSWGACC | 0.698 ± 0.45
62 | SGCVQLM | 1.32 ± 0.74
63 | SGCWT | 0.331 ± 0.8
64 | SGFENRDSIPIAPCIRLLLV | -0.056 ± 0.59
65 | SGFRVKQYMFLCFY | -0.473 ± 0.73
66 | SGGMFQVICLV | 0.263 ± 0.34
67 | SGHACTGR | 0.616 ± 0.4
68 | SGKLCWLCVNCVILGSCKSL | -0.442 ± 0.73
69 | SGKTALNSGSFKFLTSSICG | 0.224 ± 1.4
70 | SGMFYILPTSPGYAHEVPRR | 0.393 ± 0.35
71 | SGNGG | -0.158 ± 0.34
72 | SGNTSPCCVSKFDLPHSTGK | 0.245 ± 0.3
73 | SGRLVSRGTKHNQSSRCE | -0.232 ± 0.9
74 | SGSNEWSRENLIGVFVVPGQ | -0.21 ± 1.1
75 | SGTAKGVLAW | 1.4 ± 0.63

Row | Substance | amyloid nucleation score
76 | SGTAVSIVAWYTMTQLDHAG | -0.001 ± 0.37
77 | SGVICWYQKLAGINDALRWA | 1.21 ± 0.25
78 | SGWNEFTRGTTRVHWRNQYS | -1.48 ± 2.4
79 | SGWYDP | -0.523 ± 0.7
80 | SHCCLDQLGVSDKAR | 0.142 ± 0.62
81 | SHDSKAAHPWSLRNYVATRR | 0.182 ± 0.42
82 | SHGKVVIFSPSHCAGFFSCS | 7.699 ± 0.061
83 | SHRYFKWLRSIDEEVVESL | 0.677 ± 0.9
84 | SHTAVFSRAAIEMCCRDWRA | 0.537 ± 0.47
85 | SHTCYRIVTAPDTLLVSLGV | 0.438 ± 0.36
86 | SHTHEHKFSSSRCGELNSEK | -0.902 ± 0.38
87 | SIFSSWMSWGLII | 0.194 ± 0.39
88 | SIGVFNCNCHRNYEHRYRYM | 1.22 ± 0.15
89 | SIMGVDRLVVVWYGFDRCGF | 1.31 ± 0.66
90 | SINRRALRLGHHSSGVMAGL | -0.547 ± 1.3
91 | SIPFGIIMETCENLTDFAVY | -0.74 ± 0.85
92 | SISRGWFMWEDNRISRFLLI | 0.266 ± 0.37
93 | SITFRRSYTNM | 0.411 ± 0.67
94 | SITRKRVRRDAGGMVCGLVS | inactive
95 | SITSSYKYGKVSWSMSLGVG | -1.07 ± 0.46
96 | SITVPGFVAQISGVPIREYC | 0.348 ± 0.79
97 | SITWNPPVPVRTNVVDRNLG | 0.48 ± 0.52
98 | SIVKRNLNAFAGLSLYMIFG | -0.764 ± 0.54
99 | SIVLTIIKHFDYMFQDRGG | 6.06 ± 0.07
100 | SIVMGSVMTFGFDIFL | 4.47 ± 0.066

Row | Substance | amyloid nucleation score
101 | SIVVLGASTWR | 0.032 ± 0.61
102 | SIYRSVIIVMDTKVMRDVLF | 4.97 ± 0.067
103 | SKCNFVHSRLGIALQYETRL | 3.56 ± 0.1
104 | SKCRL | 1.92 ± 0.62
105 | SKFVSKNCWTARGAL | -0.166 ± 0.48
106 | SKGPWGLY | -0.517 ± 1.1
107 | SKIGDEM | -1.29 ± 1.2
108 | SKLKAYICLCRMEIVLIPRF | -0.978 ± 1.7
109 | SKNHSFDSYVMTVYFHHCGK | -0.291 ± 0.4
110 | SKRATYFFTASLGTQRCLMK | 1.29 ± 0.9
111 | SKRLACSYSSMFVKCSEYKL | 0.413 ± 0.97
112 | SLCILDEQVDHFVAEGVGID | 0.876 ± 0.42
113 | SLDGNFTKALLLKIR | 1.08 ± 0.35
114 | SLDVILVPMCTFCRGMAYCS | 0.457 ± 1.1
115 | SLFLMIVVYHVHVRALYILV | 0.531 ± 0.93
116 | SLFPVTVRKDCCLT | -0.434 ± 0.39
117 | SLFSWVCRSITGPILRISLR | 0.73 ± 0.24
118 | SLIISKEGRYVFYVCLRGWW | -0.447 ± 0.42
119 | SLIKGSTKLPR | 0.273 ± 0.6
120 | SLISCEWSYTWCGKFVILLV | -0.707 ± 1.1
121 | SLITGIRRSGMAICLDLWAG | -1.21 ± 2.7
122 | SLIYNRIRFLDGF | 0.925 ± 1.1
123 | SLMVSRGDTCG | -0.181 ± 0.35
124 | SLMWLWIFSRAGSLSLLLIA | 0.718 ± 1.2
125 | SLNFT | -0.337 ± 0.31

Row | Substance | amyloid nucleation score
126 | SLPITLLPKGFATKVFVRVC | -0.127 ± 0.72
127 | SLPLTVVLYCHRYG | 5.05 ± 0.064
128 | SLPNILLSQPMFRRISSMLQ | 1.17 ± 0.62
129 | SLPRSSIRYRFQCVRLESVM | -0.601 ± 0.47
130 | SLQINMTSSICLVST | 3.35 ± 0.07
131 | SLQTTWLKNLGDLSSSREAS | -0.121 ± 0.73
132 | SLRFPKKGYVTRCTAWYLGV | 3.45 ± 0.083
133 | SLRGQAHLQFSLRILSHSS | 1.4 ± 0.24
134 | SLRILRSRS | inactive
135 | SLSLDSNEKRKRICFW | 1.36 ± 0.29
136 | SLSLIVVKNGIFLVH | 3.16 ± 0.12
137 | SLTAVISTKVL | -0.663 ± 1.7
138 | SLVFQDRRYLTAFLGFVLWL | -0.476 ± 0.51
139 | SLVYYLGEWV | -0.366 ± 0.34
140 | SLYGYCLYARMCTASSKKLI | 1.09 ± 0.28
141 | SMESLTVEAMNSVEAFPVTY | -1.22 ± 0.73
142 | SMFASL | -0.229 ± 0.43
143 | SMGLHLMQMAAGEHIGRNR | -0.31 ± 0.4
144 | SMRFYYA | 2.97 ± 0.23
145 | SMSAQPFCNHV | -0.926 ± 0.91
146 | SMTKSIGMRSYGMVAHGAGS | 0.722 ± 0.45
147 | SMTRIANSMINVFGENPSNS | -0.267 ± 0.69
148 | SMVVV | inactive
149 | SMWTKKLFMFHNGI | 0.201 ± 0.56
150 | SMYKMDMSLSTWCWFAWHDH | -0.37 ± 0.45

Row | Substance | amyloid nucleation score
151 | SNCGWRIFKEM | -1.35 ± 2.1
152 | SNCRDKRFMY | 0.637 ± 0.79
153 | SNESILFVGSPVTRFIQYVD | inactive
154 | SNFCDTCLKLRGNTCMASFT | -0.259 ± 0.42
155 | SNFTEVLLSECFLVWLMFTH | 0.089 ± 0.87
156 | SNGLGMVRDR | -0.172 ± 0.67
157 | SNGMRRLTKVDEHSL | 0.933 ± 0.54
158 | SNHQLEYRL | 1.52 ± 0.55
159 | SNLDLHRSVLSRLGKYLDFP | 5.35 ± 0.081
160 | SNLECV | -0.019 ± 0.51
161 | SNMEYVMNEILVRLALPTSR | -0.671 ± 1.5
162 | SNRFVPSNSSKVGSNVIDAK | 0.386 ± 0.36
163 | SNRLLGVEAGVGCEIVKYNR | -0.301 ± 0.38
164 | SNRNAGRKTMGHLWHQE | 0.2 ± 0.42
165 | SNSLLQGVTIWPNYPLCGNL | 0.464 ± 0.53
166 | SNTKIED | 0.508 ± 0.59
167 | SNVFYVYRVVKSCIIFDSVL | 2.6 ± 0.076
168 | SNWLFWFIKMGQFQDSICYA | -0.616 ± 1.4
169 | SNYSQLLVMEVLHLGYTIRR | -1.19 ± 0.91
170 | SPESRRQWCL | inactive
171 | SPGFYLHGYQQNQHP | 0.653 ± 0.68
172 | SPNLI | 0.344 ± 0.9
173 | SPPLSASS | -0.476 ± 1.9
174 | SPSES | -0.31 ± 0.61
175 | SPVRIYTSRSIMRFNVRKPT | -0.306 ± 0.9

— the supplement of paper PMC12042874
